In patent publication US9096835B2, “DNA polymerase” (Medical Research Council, priority 2003, dated 2015):
“And” between values parts separate entries of the source, which are not always exact repeats. Equal values may be shown once. “Also recorded” adds a separate entry of the source.

Tests used:
[1] = test system: primer-template duplex with matched or mismatched 3′ terminus; experiment: Steady-state extension kinetics, gel-based assay; assay type: biochemical; conditions: incorporated base is dCTP
Protocol: Kinetic parameters were determined using a gel-based assay essentially as described (16). Primers 15, 16, 17 (3′ base=G, C, A respectively) were ^32P-labeled and annealed to one of template strands 18, 19, 20 (template base=C, G, A respectively) or 21 (template base C different context). Duplex substrates were used at 50 nM final concentration in 1× Taq buffer with various concentrations of enzyme and dNTP. Reactions were carried out at 60° C. for times whereby <20% of primer-template was utilized at the highest concentration of dNTP.
Extension and incorporation kinetics of M1 and M4 for a selection of mismatches were measured using a gel-based steady-state kinetic assay (Goodman) (Tables 1 & 2). M1 and M4 respectively extend a C•C mispair 390 and 75-fold more efficiently than wtTaq. […] The gain in extension efficiency derives predominantly from increased relative Vmax values for the mutant polymerases, while Km for nucleotide substrates remains largely unchanged. For most DNA polymerases the relative efficiency of extending a given mispair (f0ext) is similar to the relative efficiency of forming it (finc) (Goodman 1993, Goodman 1990, Washington 2001). Indeed, M1 and M4 respectively incorporate dCTP opposite template base C 206- and 29-fold more efficiently than wtTaq (Table 2).

[2] = test system: template containing an abasic site; experiment: Translesion replication assay (primer extension), abasic site; assay type: biochemical; conditions: gel-extension assay, 60° C.
Protocol: (§1) Template primers 22 (undamaged) or 23 (containing a synthetic abasic site) were synthesized by Lofstrand Laboratories (Gaithersburg, Md.). Template primer 24 (containing a single cis-syn thymine dimer), was synthesized as described (34). Primer 25 was ^32P-labeled and annealed to one of the three templates 22, 23, 24 (at a primer template ratio of molar 1:1.5) and extended in 40 mM Tris.HCl at pH 8.0, 5 mM MgCl2, 100 μM of each dNTP, 10 mM DTT, 250 μg/ml BSA, 2.5% glycerol, 10 nM primer-template DNA and 0.1 Unit of polymerase at 60° C. for various times.
(§2) Primer extension assays were essentially as described in (Ghadessy et al., 2004). Briefly, undamaged oligonucleotides and a 51mer containing a synthetic abasic site were synthesized by Lofstrand Laboratories (Gaithersburg, Md.) using standard techniques and were gel purified prior to use. A 20mer primer (LES—20 P) with the sequence 5′-[…]-3′ (SEQ ID NO: 99) was 5′-labeled with [^32P]ATP (5000 Ci/mmole; 1 Ci=37 GBq) (Pharmacia) using T4 polynucleotide kinase (Invitrogen, Carlsbad Calif.). Radiolabeled primer-template DNAs were prepared by annealing the 5′[^32P] labeled 20mer primer to one of the two following 51mer templates (at a primer template ratio of molar 1:1.5). 1) undamaged DNA (UNDT51T); 5′-AGCTACCATGCCTGCACGAATTCGGCATCCGTCGCGACCACGGTCGCAGCG-3′ (SEQ ID NO: 100); 2) an oligo (LABA51T) containing a synthetic abasic site (indicated as an X in bold font); 5′-AGCTACCATGCCTGCACGACA XCG GCATCCGTCGCGACCACGGTCGCAGCG-3′ (SEQ ID NO: 101). Standard replication reactions of 10 contained 40 mM Tris.HCl at pH 8.0, 5 mM MgCl2, 100 μM of each ultrapure dNTP (Amersham Pharmacia Biotech, NJ), 10 mM DTT, 250 μg/ml BSA, 2.5% glycerol, 10 nM 5′[32P] primer-template DNA and 0.1 Unit of polymerase. After incubation at 60° C. for various times reactions were terminated by the addition of 10 μl of 95% formamide/10 mM EDTA and the samples heated to 100° C. for 5 min. Reaction mixtures (5 μl) were subjected to 20% polyacrylamide/7 M Urea gel electrophoresis and replication products visualized by PhosphorImager analysis.

[3] = test system: template containing a cis-syn cyclobutane thymine-thymine dimer (CPD); experiment: Translesion replication assay (primer extension), CPD; assay type: biochemical; conditions: gel-extension assay, 60° C.
Protocol: as §1, §2

[4] = PCR with all four dNTPs replaced by αS dNTPs; assay type: biochemical; conditions: 50 cycle PCR, 50 μM αS dNTPs
Protocol: A PCR assay was used to screen and rank clones. Briefly, clones were normalized for activity in PCR with matched primers 3, 4 and activity with mismatched primers 1 and 2 (1 μM each) determined at minimal cycle number (15-25 cycles). Extension capability for different mismatches was determined by the same assay using mismatch primers 2 (C•C mismatch), 5 (A•A mismatch), 6 (G•G mismatch), 7 (G•A mismatch) with matched primer 3 or primer 1 (A•G mismatch) with matched primer 4. Incorporation of unnatural substrates in 50 cycle PCR was carried out using standard conditions and 50 μM […] dNTPs (Promega) or 50 μM FITC-12-dATP (Perkin-Elmer), Rhodamine-5-dUTP (Perkin-Elmer) or Biotin-16-dUTP (Roche) with equivalent amounts of the other 3 dNTPs (all 50 μM). Long PCR was carried out using a two-step cycling protocol as described (22) 94° C. for 2 minutes, followed by 20 cycles of (94° C. 15 sec, 68° C. 30 min) using 5 ng of phage λ DNA (New England Biolabs) template and either primers 9, 10, 11 with primer 12 or primer 13 with primers 10, 14.

[5] = molecular target: matched and mismatched primer-template duplex; experiment: Template affinity equilibrium binding assay; conditions: not shown
Protocol: An equilibrium binding assay (12) was used to determine relative affinity of polymerases for the mismatched primer-templates used in the kinetics assays. Polymerases were preincubated at 60° C. in 1× Taq buffer with 50 nM ^32P-labeled matched primer-template and 50 nM unlabeled mismatched competitor primer-templates. Reactions were initiated by simultaneous addition of dCTP (200 μM) and trap DNA (XbaI/SalI-restricted sheared salmon sperm DNA, 4.5 mg/ml).

[6] = 3′-terminal base pair A · A (template base: 3′ primer base)
[7] = 3′-terminal base pair A · G (template base: 3′ primer base)
[8] = 3′-terminal base pair C · C (template base: 3′ primer base)
[9] = 3′-terminal base pair C · G (template base: 3′ primer base), matched
[10] = 3′-terminal base pair G · A (template base: 3′ primer base)
[11] = 3′-terminal base pair G · G (template base: 3′ primer base)

Ratio of fext, fext (mutant polymerase)/fext (wtTaq) ([1]; 3′-terminal base pair A · A)	Ratio of fext, fext (mutant polymerase)/fext (wtTaq) ([1]; 3′-terminal base pair A · G)	Ratio of fext, fext (mutant polymerase)/fext (wtTaq) ([1]; 3′-terminal base pair C · C)	Ratio of fext, fext (mutant polymerase)/fext (wtTaq) ([1]; 3′-terminal base pair G · A)	Molecule	Vmax [1, 6] [% Min^−1]	Km ([1]; 3′-terminal base pair A · A) [µM]	fext, f (mismatched 3′terminus)/f (matched terminus) ([1]; 3′-terminal base pair A · A)	Vmax [1, 7] [% Min^−1]	Km ([1]; 3′-terminal base pair A · G) [µM]	fext, f (mismatched 3′terminus)/f (matched terminus) ([1]; 3′-terminal base pair A · G)	Vmax [1, 8] [% Min^−1]	Km ([1]; 3′-terminal base pair C · C) [µM]	fext, f (mismatched 3′terminus)/f (matched terminus) ([1]; 3′-terminal base pair C · C)	Km [1, 9] [µM]	Vmax [1, 9] [% Min^−1]	Vmax [1, 10] [% Min^−1]	Km ([1]; 3′-terminal base pair G · A) [µM]	fext, f (mismatched 3′terminus)/f (matched terminus) ([1]; 3′-terminal base pair G · A)	Vmax [1, 11] [% Min^−1]	Km ([1]; 3′-terminal base pair G · G) [µM]	further results
5.7	7.0	75 and 75.3	7.0	M4: Taq mutant D58G, R74P, A109T, L245R, R343G, G370D, E520G, N583S, E694K, A743P; SEQ ID NO 2 (protein, Mutant Thermus aquaticus DNA polymerase) MRGMLPLYEPKGRVLLVDGHHLAYRTFHALKGLTTSRGEPVQAVYGFAKSLLKALKEGGDAVIVVFDAKAPSFPHEAYGGYKAGRAPTPEDFPRQLALIKELVDLLGLTRLEVPGYEADDVLASLAKKAEKEGYEVRILTADKDLYQLLSDRIHVLHPEGYLITPAWLWEKYGLRPDQWADYRALTGDESDNLPGVKGIGEKTARKLLEEWGSLEALLKNLDRLKPAIREKILAHMDDLKLSWDRAKVRTDLPLEVDFAKRREPDRERLRAFLERLEFGSLLHEFGLLESPKALEEAPWPPPEGAFVGFVLSRKEPMWADLLALAAARGGRVHRAPEPYKALGDLKEARGLLAKDLSVLALREGLGLPPDDDPMLLAYLLDPSNTTPEGVARRYGGEWTEEAGERAALSERLFANLWGRLEGEERLLWLYREVERPLSAVLAHMEATGVRLDVAYLRALSLEVAEEIARLEAEVFRLAGHPFNLNSRDQLERVLFDELGLPAIGKTEKTGKRSTSAAVLGALREAHPIVEKILQYRELTKLKSTYIDPLPDLIHPRTGRLHTRFNQTATATGRLSSSDPNLQSIPVRTPLGQRIRRAFIAEEGWLLVALDYSQIELRVLAHLSGDENLIRVFQEGRDIHTETASWMFGVPREAVDPLMRRAAKTINFGVLYGMSAHRLSQELAIPYEEAQAFIKRYFQSFPKVRAWIEKTLEEGRRRGYVETLFGRRRYVPDLEARVKSVREPAERMAFNMPVQGTAADLMKLAMVKLFPRLEEMGARMLLQVHDELVLEAPKERAEAVARLAKEVMEGVYPLAVPLEVEVGIGEDWLSAKE	8.5	32.9	3.8 × 10^−6	50.0	259	1.5 × 10^−6	11.1	36.6	4.5 × 10^−6	0.012	817.0	7.5	29	3.8 × 10^−6	70.6	107	Ratio of fext, fext (mutant polymerase)/fext (wtTaq) ([1]; 3′-terminal base pair G · G): 7.6; fext, f (mismatched 3′terminus)/f (matched terminus) ([1]; 3′-terminal base pair G · G): 9.7 × 10^−6; abasic site bypass in primer extension [2]: able to extend past the lesion and to the end of the template; CPD bypass in primer extension [3]: able to readily extend all of the primer to the 3′T of the dimer; PCR amplification with all four αS dNTPs [4]: to lesser extent; dissociation constants for matched and mismatched primer-template duplex [5]: indistinguishable
3.6	6.2	390	13.3	M1: Taq mutant G84A, D144G, K314R, E520G, F598L, A608V, E742G; SEQ ID NO: 1 (protein, Mutant Thermus aquaticus DNA polymerase) MRGMLPLFEPKGRVLLVDGHHLAYRTFHALKGLTTSRGEPVQAVYGFAKSLLKALKEDGDAVIVVFDAKAPSFRHEAYGGYKAARAPTPEDFPRQLALIKELVDLLGLARLEVPGYEADDVLASLAKKAEKEGYEVRILTADKGLYQLLSDRIHVLHPEGYLITPAWLWEKYGLRPDQWADYRALTGDESDNLPGVKGIGEKTARKLLEEWGSLEALLKNLDRLKPAIREKILAHMDDLKLSWDLAKVRTDLPLEVDFAKRREPDRERLRAFLERLEFGSLLHEFGLLESPKALEEAPWPPPEGAFVGFVLSRREPMWADLLALAAAAGGRVHRAPEPYKALRDLKEARGLLAKDLSVLALREGLGLPPGDDPMLLAYLLDPSNTTPEGVARRYGGEWTEEAGERAALSERLFANLWGRLEGEERLLWLYREVERPLSAVLAHMEATGVRLDVAYLRALSLEVAEEIARLEAEVFRLAGHPFNLNSRDQLERVLFDELGLPAIGKTEKTGKRSTSAAVLGALREAHPIVEKILQYRELTKLKSTYIDPLPDLIHPRTGRLHTRFNQTATATGRLSSSDPNLQNIPVRTPLGQRIRRAFIAEEGWLLVVLDYSQIELRVLAHLSGDENLIRVFQEGRDIHTETASWMFGVPREAVDPLMRRAAKTINFGVLYGMSAHRLSQELAIPYEEAQAFIERYFQSFPKVRAWIEKTLEEGRRRGYVETLFGRRRYVPDLEARVKSVRGAAERMAFNMPVQGTAADLMKLAMVKLFPRLEEMGARMLLQVHDELVLEAPKERAEAVARLAKEVMEGVYPLAVPLEVEVGIGEDWLSAKE	1.5	40.9	2.4 × 10^−6	44.6	280	1.3 × 10^−6	9.2	25.8	2.3 × 10^−5	0.02	308.0	2.4	22	7.2 × 10^−6	29.6	67	Ratio of fext, fext (mutant polymerase)/fext (wtTaq) ([1]; 3′-terminal base pair G · G): 22.5; fext, f (mismatched 3′terminus)/f (matched terminus) ([1]; 3′-terminal base pair G · G): 2.9 × 10^−5; abasic site bypass in primer extension [2]: able to extend past the lesion and to the end of the template; also recorded: capable of both insertion opposite the abasic site and lesion bypass; CPD bypass in primer extension [3]: able to readily extend all of the primer to the 3′T of the dimer; size of PCR products with all four αS dNTPs [4]: up to 2 kbp; dissociation constants for matched and mismatched primer-template duplex [5]: indistinguishable
